From PMC9581989 come the findings set out here.

Broadly, the stoichiometry N is the number of molecules, sites or subunits per partner or assembly.

For this experiment, the target named is Lactococcus lactis pyruvate carboxylase (Lactococcus lactis). The experiment in a line: cryo-EM structure; LlPC under reaction conditions: 0.1 uM LlPC, 2 mM acetyl-CoA, 20 mM pyruvate, 2 mM ATP, 10 mM KHCO3, 5 mM MgCl2, 2 mM DTT, 200 mM NaCl, 20 mM Tris pH 7.6; symmetry expansion, focused classification of BC and CT domains.

“Lactococcus lactis pyruvate carboxylase (enzyme)” displayed a stoichiometry N of 4.
